Reference: the RNAGym collection of RNA variant scans (doi:10.7554/elife.80360)

B1: HDV Ribozyme (parent)
chain: GGCCGGCAUGGUCCCAGCCUCCUCGCUGGCGCCGGCUGGGCAACAUUCCGAGGGGACCGUCCCCUCGGUAAUGGCGAAUGGGACCCA

Variants of: B1
Experiment: self-cleavage, relative activity (ratio to wild type); higher = more cleavage; co-transcriptional

Row | Variant | self-cleavage
1 | GGCCGGCAUGGUCCCAGCCUCCUCCCUGGCGCCGGCUGGGCAACAUUCCGAGGGGACCGUCCCCUAGGUAAUGGCGAAUGGGACCCA | 0.0627
2 | GGCCGGCAUGGUCCCAGCCUCCUCCCUGGCGCGGGCUGGGCAACAUUCCGAGGGGACCGUCCCCUCGGUAAUGGCGAAUGGGACCCA | 0.201
3 | GGCCGGCAUGGUCCCAGCCUCCUCCCUGGCGCCGGCUGGGCAACAUUCCGAGGGGACCGUCCCCUCGGUAAUGGCGUAUGGGACCCA | 0
4 | GGCCGGCAUGGUCCCAGCCUCCUCCCUGGCGCCGGCUGGGCAACAUUCCGAGGGGACCGUCCCCUCGGUAAUGGCGCAUGGGACCCA | 0.104
5 | GGCCGGCAUGGUCCCAGCCUCCUCCCUGGCGCCGGCUGUGCAACAUUCCGAGGGGACCGUCCCCUCGGUAAUGGCGAAUGGGACCCA | 0.0978
6 | GGCCGGCAUGGUCCCAGCCUCCUCCCUGGCGCCGGCUGAGCAACAUUCCGAGGGGACCGUCCCCUCGGUAAUGGCGAAUGGGACCCA | 0.119
7 | GGCCGGCAUGGUCCCAGCCUCCUCCCUGGCGCCGGCUGCGCAACAUUCCGAGGGGACCGUCCCCUCGGUAAUGGCGAAUGGGACCCA | 0
8 | GGCCGGCAUGGUCCCAGCCUCCUCCCUGGCGCCGGCUGGGCACCAUUCCGAGGGGACCGUCCCCUCGGUAAUGGCGAAUGGGACCCA | 0.0554
9 | GGCCGGCAUGGUCCCAGCCUCCUCCCUGGCGCCGGCUGGACAACAUUCCGAGGGGACCGUCCCCUCGGUAAUGGCGAAUGGGACCCA | 0.0386
10 | GGCCGGCAUGGUCCCAGCCUCCUCCCUGGCGCCGGCUGGGCAACAUUCCGAGGGGACCGUCCCCUCGGUAAUGGCGAAUGGGCCCCA | 0.0489
11 | GGCCGGCAUGGUCCCAGCCUCCUCCCUGGCGCCGGCUGGGCAACAUUCCGAGGGGACCGUCCCCUCGGUAAUGGCGAAUGGGGCCCA | 0.0302
12 | GGCCGGCAUGGUCCCAGCCUCCUCCCUGGCGCCGGCUGGGCAACAUUCUGAGGGGACCGUCCCCUCGGUAAUGGCGAAUGGGACCCA | 0.222
13 | GGCCGGCAUGGUCCCAGCCUCCUCCCUGGCGCCGGCUGGGCAACAUUCGGAGGGGACCGUCCCCUCGGUAAUGGCGAAUGGGACCCA | 0.0594
14 | GGCCGGCAUGGUCCCAGCCUCCUCCCUGGCGCCGGCUGGGCAACAUUCCGAGGGGACCGUCCCCUCGGUAAUGGCGAAUGGGACGCA | 0.125
15 | GGCCGGCAUGGUCCCAGCCUCCUCCCUGGCGCCGGCUGGGCAACAUUCCGAGGGGACCGUCCCCUCGGUAAUGGCGAAUGGGACUCA | 0
16 | GGCCGGCAUGGUCCCAGCCUCCUCCCUGACGCCGGCUGGGCAACAUUCCGAGGGGACCGUCCCCUCGGUAAUGGCGAAUGGGACCCA | 0.155

Row | Variant | self-cleavage
17 | GGCCGGCAUGGUCCCAGCCUCCUCCCUGGCGCCGGCUGGGCAACAUUCCGAGGGGACCGUCCCCUCGGUAAUGGUGAAUGGGACCCA | 0
18 | GGCCGGCAUGGUCCCAGCCUCCUCCCUGGCGCCGGCUGGGCAACAUUCCGAGGGGACCGUCCCCUCGGUAAUGGGGAAUGGGACCCA | 0.185
19 | GGCCGGCAUGGUCCCAGCCUCCUCCCUGGCGCCGGCUGGGCAACAUUACGAGGGGACCGUCCCCUCGGUAAUGGCGAAUGGGACCCA | 0.0415
20 | GGCCGGCAUGGUCCCAGCCUCCUCCCUGGCGCCGGCUGGGCAACAUUCCGAGGGGACCGUCCUCUCGGUAAUGGCGAAUGGGACCCA | 0.0739
21 | GGCCGGCAUGGUCCCAGCCUCCUCCCUGGCGCCGGCUGGGCAACAUUCCGAGGGGACCGUCCACUCGGUAAUGGCGAAUGGGACCCA | 0.0755
22 | GGCCGGCAUGGUCCCAGCCUCCUCCCUGGCGCCGGCUGGGCAACAUUCCGAGGGGACCGUGCCCUCGGUAAUGGCGAAUGGGACCCA | 0.175
23 | GGCCGGCAUGGUCCCAGCCUCCUCCCUGGCGCCGGCUGGGCAACAUUCCGAGGGGACCGUUCCCUCGGUAAUGGCGAAUGGGACCCA | 0.0354
24 | GGCCGGCAUGGUCCCAGCCUCCUCCCUGGCGCCGGCUGGGCAACAUUCCGAGGGGACCGUACCCUCGGUAAUGGCGAAUGGGACCCA | 0.201
25 | GGCCGGCAUGGUCCCAGCCUCCUCCCUGGCGCCGGCUGGGCAACAUUCCGAGGGGACUGUCCCCUCGGUAAUGGCGAAUGGGACCCA | 0.0739
26 | GGCCGGCAUGGUCCCAGCCUCCUCCCUGGCGCCGGCUGGGCAACAUUCCGAGGGGACAGUCCCCUCGGUAAUGGCGAAUGGGACCCA | 0.104
27 | GGCCGGCAUGGUCCCAGCCUCCUCCCUGGCGCCGGCUGGGCAACAUUCCGAGGGGACCGUCCCCUCGGUAAUGGCGAAUGGGACCUA | 0.104
28 | GGCCGGCAUGGUCCCAGCCUCCUCCCUGGCGCCGGCUGGGCAACAUUCCGAGGGGACCGUCCCCUCGGUAAUGGCGAAUGGGACCAA | 0.128
29 | GGCCGGCAUGGUCCCAGCCUCCUCCCUGGCGCCGGCUGGGCAACAUUCCGAGGGGACCGUCACCUCGGUAAUGGCGAAUGGGACCCA | 0.18
30 | GGCCGGCAUGGUCCCAGCCUCCUCCCUGGCGCCGGCUGGGCAACAUUCCCAGGGGACCGUCCCCUCGGUAAUGGCGAAUGGGACCCA | 0.156
31 | GGCCGGCAUGGUCCCAGCCUCCUCCCUGGCGCCGGCUGGGCAACAUUCCGAGGGGACCGUCCCCUCGGUCAUGGCGAAUGGGACCCA | 0.0639
32 | GGCCGGCAUGGUCCCAGCCUCCUCCCUGGCGCCGGCUGGGCAACAUUCCGAGGGGACCGUCCCCUCGGUUAUGGCGAAUGGGACCCA | 0.0898
